Key:
[1] = biological target: T1, MsaB-His (MsaBhis) (Staphylococcus aureus USA300 LAC) (UniProt Q2FH36); assay: EMSA
T1 sequence: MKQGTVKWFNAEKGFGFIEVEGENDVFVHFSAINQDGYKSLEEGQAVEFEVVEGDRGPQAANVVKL

[2] = biological target: T1, MsaB-His (MsaBhis) (Staphylococcus aureus USA300 LAC); assay: competition
[3] = biological target: T2, MsaB-His (MsaBhis) (Staphylococcus aureus USA300 LAC, UniProt Q2FH36 1-66); assay: EMSA; 5 mM MgCl2, poly(dI-dC); conditions: protein: recombinant; tags: C-terminal 6xHis; label: 5'-biotin
T2 sequence: T1 sequence

In the case of “TCCACTAACATCATCCTAACTATTTCAACACGTTTATTTCATTATACACAACTTCTTAAACATTCAATAAATTTAGATTTATAAAATTGCTTTATAAAAAGTTTTATGTAAAATACACATTCTTTTATGGTATTATATTAATGGCTCAAGT (double strand) [PcidR promoter probe]”, the binding [1] is reported as “binds”.

In the case of “TCCACTAACATCATCCTAACTATTTCAACACGTTTATTTCATTATACACAACTTCTTAAACATTCAATAAATTTAGATTTATAAAATTGCTTTATAAAAAGTTTTATGTAAAATACACATTCTTTTATGGTATTATATTAATGGCTCAAGT (double strand) [PcidR promoter unlabeled competitor]”, the binding [2] is reported as “binds”.

B1: PcidABC-EMSA (dsDNA)
DNA 1: AGTGAAATTTAGAGAGCGTTTCCATAGAAAATAGTAATACAAACCATAAAAAAAGAGTAT
DNA 2: ATACTCTTTTTTTATGGTTTGTATTACTATTTTCTATGGAAACGCTCTCTAAATTTCACT
B1: no binding [3].

B2: PalsSD-EMSA (dsDNA)
DNA 1: B1 DNA 2
DNA 2: B1 DNA 1
B2: no binding [3].
